Measured values: patent US20160152703A1 (PERSEUS PROTEOMICS, published 2016)
Changes are numbered by the printed parent chain. Each block holds one binder with its values, some of them ahead of it.

What was measured:
[1] = target: T1, full-length human CDH3 with myc-His tag, forcibly expressed on CHO cells (EXZ1501) (human, UniProt P22223 108-829); assay: flow cytometry on CHO cells with forcible expression of CDH3
T1 construct: Clones were selected by Western blotting with an anti-c-Myc antibody; also called CDH3 full-length expression CHO cell line (EXZ1501); CHO cells with forcible expression of CDH3; not shown: C-terminal myc-His tag from vector pEF4/myc-HisB

[2] = target: T2, human CDH3 (P-cadherin), endogenous, on cancer cells (human, UniProt P22223 108-829); assay: FACS competition on a CDH3-expressing cell line; competitor: Alexa488-labeled NITE BP-989 antibody
T2 construct: Endogenous CDH3 on NCI-H358 and other human cancer cells or tissues; also called CDH3 on NCI-H358; CDH3-expressing cancer cell line

[3] = target: T2, human CDH3 (P-cadherin), endogenous, on …; assay: FACS competition on NCI-H358; competitor: Alexa488-labeled NITE BP-989 antibody; IC50 relative to the antibody without drug, average DAR 0 to 8
Method: The influence of humanization on affinity was confirmed by carrying out a competition test using a flow cytometer (FACS). A test antibody whose dilution series had been prepared, a cell line that expressed CDH3, and a certain amount of Amaxa488-labeled antibody that was competitive with the test antibody were allowed to coexist, and the reaction was then carried out at room temperature for 1 hour. Thereafter, the reaction product was washed with a FACS solution, and FACS measurement was then carried out. […] The obtained IC50 value was defined as an index for affinity.
The influence of the average drug-to-antibody ratio (DAR) of the drug binding to the humanized antibody of the present invention on affinity was confirmed by the same competition test using FACS as that in Example 25. The antibody drug conjugate was prepared in the range of average DAR of 0 to 8 by the method described in Example 15. The DAR was quantified by the method described in Example 16.
As a cell line, NCI-H358 was used. […] By the same FACS competition test as that described in Example 25, each IC50 value was calculated as an index for affinity.

[4] = target: T2, human CDH3 (P-cadherin), endogenous, on …; assay: flow cytometry on NCI-H358 cells, antibody at 10 ug/mL
Method: A cell line that would be used as a reaction target (an NCI-H358 cell line that had been confirmed to express CDH3 at a high level) was treated with 2 mM EDTA-PBS, so that the cells were removed from a culture plate, and the obtained cells were then suspended in a FACS solution to a cell density of 1×10⁶ cells/mL. This cell suspension was seeded on a 96-well plate, resulting in an amount of 50 μL/well, and the purified chimeric antibody was then added to the plate to result in a concentration of 10 μg/mL, followed by performing a reaction at 4° C. for 60 minutes. Thereafter, the reaction mixture was washed with a FACS solution (150 μL/well) two times, and 4 μg/ml AlexaFlour488-labeled anti-human IgG/goat F(ab′)₂ (Invitrogen) was then added to the resultant. The obtained mixture was reacted at 4° C. for 30 minutes. Thereafter, the cells were washed with a FACS solution two times, and was then subjected to flow cytometry.

T2 sequence (P22223 108-829 limits assumed): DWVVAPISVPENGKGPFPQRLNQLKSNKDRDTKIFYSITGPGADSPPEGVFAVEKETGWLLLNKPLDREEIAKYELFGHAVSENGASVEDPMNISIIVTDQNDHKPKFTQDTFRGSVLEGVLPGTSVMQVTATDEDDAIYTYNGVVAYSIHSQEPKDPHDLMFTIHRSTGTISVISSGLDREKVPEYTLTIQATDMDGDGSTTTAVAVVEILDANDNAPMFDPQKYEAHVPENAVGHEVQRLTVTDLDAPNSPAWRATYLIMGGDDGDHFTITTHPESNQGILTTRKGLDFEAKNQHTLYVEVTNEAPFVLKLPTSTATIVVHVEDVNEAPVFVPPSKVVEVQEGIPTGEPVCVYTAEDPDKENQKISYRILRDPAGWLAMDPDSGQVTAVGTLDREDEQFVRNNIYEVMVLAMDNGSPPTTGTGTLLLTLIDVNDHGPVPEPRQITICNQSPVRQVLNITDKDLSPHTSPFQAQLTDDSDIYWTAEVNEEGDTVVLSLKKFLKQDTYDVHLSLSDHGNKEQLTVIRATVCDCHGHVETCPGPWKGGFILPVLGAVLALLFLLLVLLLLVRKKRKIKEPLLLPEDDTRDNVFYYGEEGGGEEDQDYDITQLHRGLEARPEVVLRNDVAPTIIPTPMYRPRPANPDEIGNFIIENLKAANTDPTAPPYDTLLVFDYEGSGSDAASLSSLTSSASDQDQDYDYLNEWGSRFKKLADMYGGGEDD
T1 sequence (P22223 108-829): as the sequence (P22223 108-829 limits assumed) above

B1: PPAT-076-44Hd (antibody, V domains shown)
VH: QVQLVESGGGVVQPGRSLRLSCAASGFSLTSYGVHWVRQAPGKGLEWVGVIWSGGSTDYADSVKGRFTISKDNSKNTVYLQMNSLRAEDTAVYYCARNSNNGFAYWGQGTLVTVSS
VL: DIQLTQSPSSLSASVGDRVTITCRASQNIYSNLAWYQQKPGKAPKLLVYAAKNLASGVPSRFSGSGSGTDFTLTISSLQPEDFATYYCQHFYDTPWTFGQGTKVEIK
notes: also called anti-CDH3 humanized antibody (human germline framework, reshaped); humanized antibody
binding result [1]: binds
binding result [2]: binds

B4: PPAT-076-44Hb, to which a drug is bound (DM1 conjugate) (antibody, human IgG1, V domains shown)
VH: B1 VH with Q1E, V11L, R16G, G49A
VL: B1 VL with L4M
modifications: DM1 bound through Sulfo-SMCC; sites not stated
notes: Human IgG1/kappa; also called CDH3 antibody drug conjugate of PPAT-076-44Hb; humanized antibody drug conjugate
binding result [3]: binds

Now from value to binder:

binding result [3]: binds
B2: PPAT-076-44Hd, to which a drug is bound (DM1 conjugate) (antibody, human IgG1, V domains shown)
VH: B1 VH
VL: B1 VL
modifications: DM1 bound through Sulfo-SMCC; sites not stated
notes: Human IgG1/kappa; also called CDH3 antibody drug conjugate of PPAT-076-44Hd; drug conjugate of PPAT-076-44Hd

binding result [4]: binds
binding result [1]: binds
B3: PPAT-076-44Hb (antibody, V domains shown)
VH: B1 VH with Q1E, V11L, R16G, G49A
VL: B1 VL with L4M
notes: also called anti-CDH3 humanized antibody (human consensus framework, reshaped)
